Laboratory results as given in article PMC10706272, “Improving the Thermostability of Thermomyces lanuginosus Lipase by Restricting the Flexibility of N-Terminus and C-Terminus Simultaneously via the 25-Loop Substitutions” (International Journal of Molecular Sciences, 2023).

Substrate: CCCCCCCCCCCCCCCC(=O)Oc1ccc([N+](=O)[O-])cc1
Assay: initial-rate hydrolysis of pNPP, p-nitrophenol release, Michaelis-Menten fit
Format: biochemical, Thermomyces lanuginosus
Settings: 37 °C, pH 9.0, Tris-HCl 100 mM, apparent Km, pNPP 0.25-10 mM
Excerpt: initial-rate hydrolysis of pNPP, p-nitrophenol release, Michaelis-Menten fit on TLL (Thermomyces lanuginosus lipase)

B1: TLL (Thermomyces lanuginosus lipase) (Thermomyces lanuginosus) (protein)
chain: EVSQDLFNQFNLFAQYSAAAYCGKNNDAPAGTNITCTGNACPEVEKADATFLYSFEDSGVGDVTGFLALDNTNKLIVLSFRGSRSIENWIGNLNFDLKEINDICSGCRGHDGFTSSWRSVADTLRQKVEDAVREHPDYRVVFTGHSLGGALATVAGADLRGNGYDIDVFSYGAPRVGNRAFAEFLTVQTGGTLYRITHTNDIVPRLPPREFGYSHSSPEYWIKSGTLVPVTRNDIVKIEGIDATGGNNQPNIPDIPAHLWYFGLIGTCL
Protein B1 has a Km of 220 ± 50 µM, a Vmax of 402 µmol/min/mg and a kcat of 594 ± 4 s⁻¹. For the same protein, the kcat/Km was 2.72e+06 ± 54000 M⁻¹ s⁻¹.
